Here are results for 3 molecules from PMC8203317 (Journal of immunology (Baltimore, Md. : 1950), 2020).

The target of test [1] is Paxillin (UniProt P49023). The settings on record: cited from earlier work.
Test [2] deals with human Kindlin-3 F0 (1-105), GST tag removed (human, UniProt Q86UX7 1-105). Put plainly: NMR titration.
Sequence of human Kindlin-3 F0 (1-105), GST tag removed (Q86UX7 1-105): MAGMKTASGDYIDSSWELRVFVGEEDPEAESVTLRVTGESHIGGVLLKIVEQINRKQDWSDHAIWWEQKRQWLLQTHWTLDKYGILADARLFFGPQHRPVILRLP

The Kd is the equilibrium constant for the complex coming apart. On to Kindlin-2 (from UniProt Q96AC1), for which the Kd in test [1] was 201 µM.

B1: human LPXN LIM4 (324-386), 15N-labeled, GST tag removed (domain or fragment, UniProt O60711 324-386, looked up)
chain: RRGTLCHGCGQPITGRCISAMGYKFHPEHFVCAFCLTQLSKGIFREQNDKTYCQPCFNKLFPL
modifications: also: 15N-labeled
In the case of B1, binding in test [2] was put at a Kd of 192 µM.

B2: human PXN (paxillin-γ) LIM4 (541-605), 15N-labeled, GST tag removed (domain or fragment, UniProt P49023-3 541-605, looked up)
chain: YHERRGSLCSGCQKPITGRCITAMAKKFHPEHFVCAFCLKQLNKGTFKEQNDKPYCQNCFLKLFC
modifications: also: 15N-labeled
Molecule B2 gave a Kd in test [2] of 117 µM.
